Legend:
[1] = biological target: SARS-CoV-2 spike protein S on live virus, Alpha variant (SARS-CoV-2 (Alpha variant)) (UniProt P0DTC2); assay: cell-based or functional assay
[2] = biological target: Human SARS-CoV-2 Gamma (P.1) S (SARS-CoV-2 (Gamma variant)) (UniProt P0DTC2); assay: flow cytometry SVNA: VHH-Fc inhibits S binding to ACE2 on Vero E6 cells
[3] = biological target: Human SARS-CoV-2 Delta (B.1.617.2) S (SARS-CoV-2 (Delta variant)) (UniProt P0DTC2); assay: as above
[4] = biological target: Human SARS-CoV-2 Kappa (B.1.617.1) S (SARS-CoV-2 (Kappa variant)) (UniProt P0DTC2); assay: as above

Substance: VHH-72 VHH-Fc (Fc fusion)
- LVNA IC50 [1]: 1.86 nM
- IC50 [2]: 3.3 nM
- IC50 [3]: 10.5 nM
- IC50 [4]: 8.5 nM

— patent US20240270826A1
